# According to patent US20090117108A1 (published 2009):
# T1: purified CEA (carcinoembryonic antigen) (UniProt P06731 35-685, limits assumed)
# T1 construct: Bought antigen; also called purified CEA (Fitzerald, German); purified CEA(R&D)
# T1 sequence (looked up): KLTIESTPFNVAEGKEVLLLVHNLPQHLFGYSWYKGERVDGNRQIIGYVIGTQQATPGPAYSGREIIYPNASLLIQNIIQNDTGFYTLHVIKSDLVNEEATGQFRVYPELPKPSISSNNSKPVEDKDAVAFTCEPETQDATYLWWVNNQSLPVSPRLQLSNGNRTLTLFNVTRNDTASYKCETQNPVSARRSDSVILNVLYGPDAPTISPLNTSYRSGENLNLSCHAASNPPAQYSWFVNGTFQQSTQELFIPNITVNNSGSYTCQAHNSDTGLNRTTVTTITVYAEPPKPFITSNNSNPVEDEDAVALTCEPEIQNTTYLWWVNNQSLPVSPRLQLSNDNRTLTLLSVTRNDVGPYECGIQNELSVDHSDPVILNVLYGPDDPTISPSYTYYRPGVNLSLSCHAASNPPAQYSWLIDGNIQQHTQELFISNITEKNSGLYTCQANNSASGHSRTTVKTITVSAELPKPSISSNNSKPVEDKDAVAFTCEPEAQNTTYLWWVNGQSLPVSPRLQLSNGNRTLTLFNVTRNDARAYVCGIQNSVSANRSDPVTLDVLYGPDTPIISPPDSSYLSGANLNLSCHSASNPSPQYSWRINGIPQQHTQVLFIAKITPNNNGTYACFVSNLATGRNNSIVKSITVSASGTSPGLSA
# Columns and labels:
# [1] = target: T1, purified CEA (carcinoembryonic antigen); experiment: ELISA, CEA coated at 1 ug/ml, CEA-scTsAb diluted from 10 ug/ml, detected by anti-c-myc antibody
# rhCD28-FC chimera (R&D) = target: T2, rhCD28-FC chimera (R&D) (human (printed as 'rh'), UniProt P10747 19-152); experiment: ELISA, rhCD28-FC chimera coated at 1 ug/ml, CEA-scTsAb diluted from 10 ug/ml, detected by anti-c-myc antibody
# T2 construct: Bought from R&D; Fc part of the bought chimera not given
# T2 sequence (P10747 19-152, change not shown): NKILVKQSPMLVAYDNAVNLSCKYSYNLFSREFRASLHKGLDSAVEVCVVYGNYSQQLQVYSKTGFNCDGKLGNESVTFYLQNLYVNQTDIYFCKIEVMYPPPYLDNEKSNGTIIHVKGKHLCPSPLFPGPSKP
binder,measurement,setting,value
"recombinant anti-CEA/CD3/CD28 single-chain tri-specific antibody CEA-scTsAb (other, Single linear tri-specific antibody expressed solubly in the E. coli cytoplasm and purified by DEAE flow-through to about 70-75% purity; also called anti-CEA/CD3/CD28 scTsAb) MGLEQVQLQQSGAELMKPGASVKISCKATGYTFSDYWIEWVKQRPGHGLEWIGEILPGSGRTDYNERFKGKATFTGDVSSNTAYMKLSSLTSEDSAVYYCATGTTPFGYWGQGTLVTVSATSTPSHNSHQVPSAGGPTANSGSRDIVLTQSPASLAVSLGQRATISCRASQSVSTSSYTYMHWYQQKPGQPPKLLIKYASNLESGVPARFSGSGSGTDFTLNIHPVEEEDTAYYYCQHSWEIPRTFGGGTKLEIKEFNSTYRVVSVLTVLHQDWLNGKEYKCKSTEVKLVESGPELVKPGASMKISCKASGYSFTGYTMNWVKQSHGKNLEWMGLINPYKGVSTYNQKFKDKATLTVDKSSSTAYMELLSLTSEDSAVYYCARSGYYGDSDWYFDVWGAGTSVTVSSTSGGGGSGGGGSGGGGSSRDIQMTQTTSSLSASLGDRVTISCRASQDIRNYLNWYQQKPDGTVKLLIYYTSRLHSGVPSKFSGSGSGTDYSLTISNLEQEDIATYFCQQGNTLPWTFAGGTKLELKRAVDFQNALLVRYTKKVPQVSTPTPVEVSHMQVQLQESGPGLVKPSQTLSLTCTVSGFSLSDYGVHWVRQPPGKGLECLGVIWGGGTNYNSALMSRRVTSSDDTSKNQFSLKLSSVDTAVYYCARSYYYSMDYWGQGTLVTVSSGTEQKLISEEDLNGAAHHHHHHEQ",binding result,[1],binds
same,binding result,rhCD28-FC chimera (R&D),binds
